Measured values taken from the supplement of paper PMC10567573.

B1: ALKBH7 (parent)
chain: SVICRSLPEGMGPGESGQPPPAC

Variants of: B1
Assay: protein stability index of a GFP-peptide fusion (GPS, HEK-293T) (PSI 1-6); higher = more stable
Settings: c terminus: native
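Also: lentivirally expressed fusions sorted by FACS into six bins by GFP to DsRed ratio, PSI derived from sequencing read proportions per bin multiplied by bin number.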

Going from SVICRSLPEGWGPGESGQPPPAC [M11W] to SVICRSLPEGYGPGESGQPPPAC [M11Y], the protein stability index rises from 1 to 2.52.

First: SVICRSLPEGCGPGESGQPPPAC [M11C]
Second: SVICRSLPEGAGPGESGQPPPAC [M11A]
The protein stability index of the first is lower: 1.73 for the first, 2.37 for the second.

Compared with SVICRSLPEGNGPGESGQPPPAC [M11N], SVICRSLPEGEGPGESGQPPPAC [M11E] is higher in protein stability index: 2.81 for the first, 3.08 for the second.

Compared with SVICRSLPEGRGPGESGQPPPAC [M11R], SVICRSLPEGHGPGESGQPPPAC [M11H] is lower in protein stability index: 2.29 for the first, 1.98 for the second.

Compared with SVICRSLPEGPGPGESGQPPPAC [M11P], SVICRSLPEGDGPGESGQPPPAC [M11D] is higher in protein stability index: 1.84 for the first, 4.2 for the second.

Compared with SVICRSLPEGSGPGESGQPPPAC [M11S], SVICRSLPEGLGPGESGQPPPAC [M11L] is lower in protein stability index: 2.23 for the first, 1.99 for the second.

First: SVICRSLPEGFGPGESGQPPPAC [M11F]
Second: SVICRSLGEGMGPGESGQPPPAC [P8G]
The protein stability index of the first is lower: 1.49 for the first, 2.19 for the second.

Going from SVICRSLWEGMGPGESGQPPPAC [P8W] to SVICRSLTEGMGPGESGQPPPAC [P8T], the protein stability index falls from 2.01 to 1.67.

First: SVICRSLAEGMGPGESGQPPPAC [P8A]
Second: SVICRSLIEGMGPGESGQPPPAC [P8I]
The protein stability index of the first is higher: 2.08 for the first, 1.65 for the second.

Going from SVICRSLVEGMGPGESGQPPPAC [P8V] to SVICRSLHEGMGPGESGQPPPAC [P8H], the protein stability index rises from 1.42 to 2.94.

Going from SVICRSLEEGMGPGESGQPPPAC [P8E] to SVICRSLQEGMGPGESGQPPPAC [P8Q], the protein stability index rises from 2.46 to 2.53.

Going from SVICRSLSEGMGPGESGQPPPAC [P8S] to SVICRSLNEGMGPGESGQPPPAC [P8N], the protein stability index rises from 2.32 to 2.48.

Going from SVICRSLMEGMGPGESGQPPPAC [P8M] to SVICRSLPCGMGPGESGQPPPAC [E9C], the protein stability index falls from 2.93 to 1.02.

Compared with SVICRSLPHGMGPGESGQPPPAC [E9H], SVICRSLPGGMGPGESGQPPPAC [E9G] is higher in protein stability index: 1.77 for the first, 2.54 for the second.

Compared with SVICRSLPKGMGPGESGQPPPAC [E9K], SVICRSLPNGMGPGESGQPPPAC [E9N] is higher in protein stability index: 1.7 for the first, 1.93 for the second.

Compared with SVICRSLPTGMGPGESGQPPPAC [E9T], SVICRSLPLGMGPGESGQPPPAC [E9L] is lower in protein stability index: 1.7 for the first, 1.23 for the second.

Compared with SVICRSLPDGMGPGESGQPPPAC [E9D], SVICRSLPWGMGPGESGQPPPAC [E9W] is lower in protein stability index: 2.97 for the first, 1.68 for the second.

Compared with SVICRSLPSGMGPGESGQPPPAC [E9S], SVICRSLPFGMGPGESGQPPPAC [E9F] is higher in protein stability index: 1.5 for the first, 1.86 for the second.

Going from SVICRSLPRGMGPGESGQPPPAC [E9R] to SVICRSLPIGMGPGESGQPPPAC [E9I], the protein stability index rises from 1.91 to 1.99.

Going from SVICRSLPQGMGPGESGQPPPAC [E9Q] to SVICRSLPYGMGPGESGQPPPAC [E9Y], the protein stability index rises from 1.83 to 1.85.

First: SVICRSLPMGMGPGESGQPPPAC [E9M]
Second: SVICRSLPEEMGPGESGQPPPAC [G10E]
The protein stability index of the first is lower: 1.55 for the first, 1.91 for the second.

Going from SVICRSLPENMGPGESGQPPPAC [G10N] to SVICRSLPEPMGPGESGQPPPAC [G10P], the protein stability index rises from 1.5 to 1.88.

Compared with SVICRSLPECMGPGESGQPPPAC [G10C], SVICRSLPESMGPGESGQPPPAC [G10S] is higher in protein stability index: 1.95 for the first, 3.04 for the second.

Compared with SVICRSLPEAMGPGESGQPPPAC [G10A], SVICRSLPEDMGPGESGQPPPAC [G10D] is lower in protein stability index: 2.59 for the first, 2.29 for the second.

Compared with SVICRSLPERMGPGESGQPPPAC [G10R], SVICRSLPEMMGPGESGQPPPAC [G10M] is higher in protein stability index: 1.76 for the first, 3.27 for the second.

Going from SVICRSLPETMGPGESGQPPPAC [G10T] to SVICRSLPEKMGPGESGQPPPAC [G10K], the protein stability index rises from 1.03 to 1.91.

First: SVICRSLPELMGPGESGQPPPAC [G10L]
Second: SVICRSLPEFMGPGESGQPPPAC [G10F]
The protein stability index of the first is lower: 1.51 for the first, 1.89 for the second.

First: SVICRSLPEYMGPGESGQPPPAC [G10Y]
Second: SVICRSLPEIMGPGESGQPPPAC [G10I]
The protein stability index of the first is lower: 1.91 for the first, 1.95 for the second.

Going from SVICRSLPEGMPPGESGQPPPAC [G12P] to SVICRSLPEGMWPGESGQPPPAC [G12W], the protein stability index falls from 2.37 to 1.09.

Going from SVICRSLPEGMFPGESGQPPPAC [G12F] to SVICRSLPEGMRPGESGQPPPAC [G12R], the protein stability index rises from 1.54 to 1.82.

SVICRSLPEGMSPGESGQPPPAC [G12S] and SVICRSLPEGMIPGESGQPPPAC [G12I] are the same in protein stability index: 1.87 for the first, 1.87 for the second.

First: SVICRSLPEGMAPGESGQPPPAC [G12A]
Second: SVICRSLPEGMMPGESGQPPPAC [G12M]
The protein stability index of the first is lower: 2.17 for the first, 2.68 for the second.

Compared with SVICRSLPEGMNPGESGQPPPAC [G12N], SVICRSLPEGMYPGESGQPPPAC [G12Y] is lower in protein stability index: 2.09 for the first, 2.04 for the second.

Compared with SVICRSLPEGMEPGESGQPPPAC [G12E], SVICRSLPEGMLPGESGQPPPAC [G12L] is lower in protein stability index: 2.85 for the first, 1.85 for the second.

Compared with SVICRSLPEGMHPGESGQPPPAC [G12H], SVICRSLPEGMKPGESGQPPPAC [G12K] is higher in protein stability index: 1.69 for the first, 2.22 for the second.

Going from SVICRSLPEGMQPGESGQPPPAC [G12Q] to SVICRSLPEGMDPGESGQPPPAC [G12D], the protein stability index rises from 2 to 2.52.

Compared with SVICRSSPEGMGPGESGQPPPAC [L7S], SVICRSTPEGMGPGESGQPPPAC [L7T] is higher in protein stability index: 2.14 for the first, 3.06 for the second.

Compared with SVICRSVPEGMGPGESGQPPPAC [L7V], SVICRSDPEGMGPGESGQPPPAC [L7D] is higher in protein stability index: 1.99 for the first, 2.98 for the second.

First: SVICRSEPEGMGPGESGQPPPAC [L7E]
Second: SVICRSYPEGMGPGESGQPPPAC [L7Y]
The protein stability index of the first is higher: 2.16 for the first, 1.67 for the second.

Going from SVICRSQPEGMGPGESGQPPPAC [L7Q] to SVICRSIPEGMGPGESGQPPPAC [L7I], the protein stability index falls from 2.67 to 2.36.

First: SVICRSFPEGMGPGESGQPPPAC [L7F]
Second: SVICRSAPEGMGPGESGQPPPAC [L7A]
The protein stability index of the first is higher: 2.35 for the first, 2.32 for the second.

Going from SVICRSCPEGMGPGESGQPPPAC [L7C] to SVICRSHPEGMGPGESGQPPPAC [L7H], the protein stability index falls from 2.05 to 1.63.

First: SVICRSMPEGMGPGESGQPPPAC [L7M]
Second: SVICRSRPEGMGPGESGQPPPAC [L7R]
The protein stability index of the first is lower: 1.67 for the first, 1.85 for the second.

Going from SVICRSLPEGMGPGRSGQPPPAC [E15R] to SVICRSLPEGMGPGDSGQPPPAC [E15D], the protein stability index rises from 1.6 to 2.44.

Going from SVICRSLPEGMGPGSSGQPPPAC [E15S] to SVICRSLPEGMGPGNSGQPPPAC [E15N], the protein stability index falls from 2.68 to 1.8.

First: SVICRSLPEGMGPGFSGQPPPAC [E15F]
Second: SVICRSLPEGMGPGASGQPPPAC [E15A]
The protein stability index of the first is higher: 2.49 for the first, 1.09 for the second.

First: SVICRSLPEGMGPGCSGQPPPAC [E15C]
Second: SVICRSLPEGMGPGYSGQPPPAC [E15Y]
The protein stability index of the first is lower: 1.01 for the first, 1.66 for the second.

First: SVICRSLPEGMGPGTSGQPPPAC [E15T]
Second: SVICRSLPEGMGPGPSGQPPPAC [E15P]
The protein stability index of the first is higher: 2.01 for the first, 1.73 for the second.

SVICRSLPEGMGPGISGQPPPAC [E15I] showed a protein stability index of 2.1.
